Assay results taken from patent US20240029819A1, “AGENTS BINDING MODIFIED ANTIGEN PRESENTED PEPTIDES AND USE OF SAME” (Yeda Research and Development Co. Ltd., priority 2020, published 2024).
“Also recorded” adds a separate entry of the source. Where no end group is shown, it is not given here. [ ]: non-standard residue; d: D form. N(d) = deamidated Asn

Molecular target: HLA-A0201 (Homo sapiens, UniProt P04439, D140Y/D185E/D98H/E176V/E277Q/G131W/G231S/I119V/I121R/I166T/I218V/L300P/L318F/N151K/N90K/P208A/P217A/Q86G/Q94H/R138H/R169H/T345S)
Assay: ProImmune Module 2 REVEAL in-vitro MHC-peptide binding assay
Details: synthesized modified peptides and unmodified counterparts; score relative to positive control peptide; FIG. 4F
Method: ProImmune binding assay—ProImmune (www(dot)proimmune(dot)com) Module 2 REVEAL Binding Assay measure the yield of correctly conformed MHC-peptide complex following incubation of the recombinant MHC allele and peptide of interest using a conformational-dependent antibody in an immunoassay. Each peptide is given a score relative to the positive control peptide, which is a known T cell epitope.
To validate that the modified peptides identified with PROMISE are able to bind to HLA, the subset of modified peptides that were identified in immunopeptidomics of an HLA-A0201 cell line and that were not identified in IEDB in their unmodified form were filtered (FIG. 4D). Further, whether the difference in the detection of the modified peptides and their unmodified counterparts was due to their relative ability to bind HLA-A0201 was examined. […] Methylation of K-6 removes its positive charge and thereby alleviates electrostatic repulsion. In addition, the methyl group is nicely packed into the hydrophobic MHC groove. […] To assess the role of peptide modification in altering MHC binding 6 modified peptides and their unmodified counterparts were synthesized and their binding was examined using a binding assay (ProImmune). In these setting 4 of the synthesized modified peptides were confirmed as HLA binders.

| Substance | binding to HLA-A0201 of the modified peptide compared with its matching unmodified form |
| --- | --- |
| TLN(d)SLIYTL (TL[N(d)]SLIYTL) | bind more strongly in its unmodified form |
| K(me)VMDEVAGI (KVMDEVAGI; not fully specified (residue 1); printed as K(me)VMDEVAGI) | bind the HLA-A0201 more strongly than the unmodified form |
| TLIESK(me)LPV (TLIESKLPV; not fully specified (residue 6); printed as TLIESK(me)LPV) | bind more strongly in its modified form; also recorded: bind the HLA-A0201 more strongly than the unmodified form |
| TLE(me)NCLLPD(me) (TLENCLLPD; not fully specified (residues 3, 9); printed as TLE(me)NCLLPD(me)) | bound the MHC only in its modified form |
